From US20050261179

How the values were obtained:
[1] = test system: adrenomedullin (synthetic human AM)
[2] = target: human complement factor H (UniProt P08603)
Sequence of human complement factor H (P08603 19-1231): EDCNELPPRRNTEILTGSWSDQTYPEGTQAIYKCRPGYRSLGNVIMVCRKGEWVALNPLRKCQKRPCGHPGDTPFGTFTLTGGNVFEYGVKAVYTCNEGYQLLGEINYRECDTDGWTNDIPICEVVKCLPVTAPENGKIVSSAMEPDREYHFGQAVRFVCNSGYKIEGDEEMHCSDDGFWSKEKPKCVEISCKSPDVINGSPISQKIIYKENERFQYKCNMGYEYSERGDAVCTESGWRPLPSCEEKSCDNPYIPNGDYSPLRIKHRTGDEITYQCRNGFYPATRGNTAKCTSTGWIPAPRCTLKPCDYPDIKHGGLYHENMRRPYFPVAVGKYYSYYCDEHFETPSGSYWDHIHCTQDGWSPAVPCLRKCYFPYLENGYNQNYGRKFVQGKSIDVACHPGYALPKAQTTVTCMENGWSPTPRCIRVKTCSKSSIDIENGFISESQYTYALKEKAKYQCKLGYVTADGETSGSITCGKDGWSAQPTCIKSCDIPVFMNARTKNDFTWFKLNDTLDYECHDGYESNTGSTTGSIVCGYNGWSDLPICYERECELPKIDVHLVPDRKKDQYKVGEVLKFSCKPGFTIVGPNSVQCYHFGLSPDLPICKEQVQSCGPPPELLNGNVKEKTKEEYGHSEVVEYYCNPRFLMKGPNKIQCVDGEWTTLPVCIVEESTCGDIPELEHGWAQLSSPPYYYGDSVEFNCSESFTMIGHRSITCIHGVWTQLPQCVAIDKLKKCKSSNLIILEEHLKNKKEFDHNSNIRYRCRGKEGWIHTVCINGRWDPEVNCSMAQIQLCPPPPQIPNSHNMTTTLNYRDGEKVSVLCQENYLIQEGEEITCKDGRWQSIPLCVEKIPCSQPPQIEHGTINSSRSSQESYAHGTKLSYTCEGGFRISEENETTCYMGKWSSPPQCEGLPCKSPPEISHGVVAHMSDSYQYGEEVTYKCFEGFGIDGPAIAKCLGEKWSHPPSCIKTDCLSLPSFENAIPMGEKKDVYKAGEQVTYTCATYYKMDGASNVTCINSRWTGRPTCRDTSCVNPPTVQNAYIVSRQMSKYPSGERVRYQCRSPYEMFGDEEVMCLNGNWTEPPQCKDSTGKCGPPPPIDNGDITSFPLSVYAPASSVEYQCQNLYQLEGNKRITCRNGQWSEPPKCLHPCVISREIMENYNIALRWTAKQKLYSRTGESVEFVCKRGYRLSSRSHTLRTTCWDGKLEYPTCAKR

human recombinant MMP-9
degradation of synthetic AM (gel) [1]: The resistance of AM to degradation by MMP-9
degradation of factor H (gel) [2]: is not a substrate for either one of the MMPs
